Test results from patent publication US20170355730A1 (ENTRADA THERAPEUTICS, published 2017).
Starred links: 1 amine or outer side, 2 acyl side, 3 side chain; linkers in the order of their positions; H or OH if unused. Non-standard residues stand in square brackets, D forms with d. Primed or numbered codes have the meaning given here. No end group written: not given here. *: point of attachment. FITC = O=C1OC2(c3ccc(O)cc3Oc3cc(O)ccc32)c2ccc(NC(=S)*)cc21; Trimesoyl = O=C(c1cc(C(=O)[*:2])cc(C(=O)[*:3])c1)[*:1]; F2Pmp = N[C@@H](Cc1ccc(C(F)(F)P(=O)(O)O)cc1)C(=O)O; Phe(4-F) = N[C@@H](Cc1ccc(F)cc1)C(=O)O; dPhe(4-F) = N[C@H](Cc1ccc(F)cc1)C(=O)O; 2Nal = N[C@@H](Cc1ccc2ccccc2c1)C(=O)O; Pip′ = L-homoproline (pipecolyl); AMC = Cc1cc(=O)oc2cc(N*)ccc12; Phg = N[C@H](C(=O)O)c1ccccc1; Nle = CCCC[C@H](N)C(=O)O; Abu = CC[C@H](N)C(=O)O; Dap = NC[C@H](N)C(=O)O; Butyryl = CCCC(=O)*

T1: Caspase-3, Human, recombinant protein (human, UniProt P42574 29-277, limits assumed)
T1 sequence (looked up): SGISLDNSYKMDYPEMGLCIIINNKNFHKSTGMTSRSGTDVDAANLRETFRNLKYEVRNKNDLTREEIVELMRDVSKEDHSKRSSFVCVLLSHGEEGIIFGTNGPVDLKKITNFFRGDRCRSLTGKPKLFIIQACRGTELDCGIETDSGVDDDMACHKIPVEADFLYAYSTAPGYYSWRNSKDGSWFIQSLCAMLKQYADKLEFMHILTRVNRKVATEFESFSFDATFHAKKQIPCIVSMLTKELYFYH

T2: ybbR-tagged PTP1B catalytic domain (amino acids 1-321) (UniProt P18031 1-321, Texas Red attached through CoA/Sfp to the ybbR tag (library screening only))
T2 sequence: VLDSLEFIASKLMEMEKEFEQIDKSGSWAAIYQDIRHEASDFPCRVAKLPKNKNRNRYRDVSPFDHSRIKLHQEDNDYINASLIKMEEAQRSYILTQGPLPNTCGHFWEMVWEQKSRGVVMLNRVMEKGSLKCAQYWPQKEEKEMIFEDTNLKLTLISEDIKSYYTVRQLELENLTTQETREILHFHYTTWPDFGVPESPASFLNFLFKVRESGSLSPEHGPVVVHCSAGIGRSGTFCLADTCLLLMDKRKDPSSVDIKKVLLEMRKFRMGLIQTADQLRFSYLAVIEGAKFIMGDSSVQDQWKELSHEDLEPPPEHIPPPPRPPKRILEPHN


Columns and labels:
Pin4 = Pin4 (human, UniProt Q9Y237 1-131, limits assumed); assay: cell-based or functional assay
Pin4, sequence (Q9Y237 whole entry): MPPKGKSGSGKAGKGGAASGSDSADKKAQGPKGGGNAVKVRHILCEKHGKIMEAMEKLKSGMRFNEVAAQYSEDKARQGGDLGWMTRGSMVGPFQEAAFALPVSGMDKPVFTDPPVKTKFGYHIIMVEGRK

[1] = target: T1, Caspase-3, Human, recombinant protein; assay: cell-based or functional assay
[2] = target: T1, Caspase-3, Human, recombinant protein; assay: cell-based or functional assay; remark: listed apart in the source
[3] = target: T2, ybbR-tagged PTP1B catalytic domain …; assay: cell-based or functional assay
CAL-PDZ domain = CAL-PDZ domain (UniProt Q9HD26 286-370); assay: fluorescence anisotropy, FITC-labeled peptide, in the presence of 2 mM tris(carboxylethyl)phosphine
[4] = target: T2, ybbR-tagged PTP1B catalytic domain …; assay: PTP1B-catalyzed pNPP hydrolysis, competitive inhibition (Lineweaver-Burk and secondary plot)

| Binder | ΔFU/min [1] | IC50 (inhibition of pNPP hydrolysis) [3] | other results |
| --- | --- | --- | --- |
| Trimesoyl-[dPhe(4-F)][Phe(4-F)][dT][Pip′][2Nal]RA[dF][Dap]F[2Nal]RRRR[Dap]K (linker (positions not given here) via Trimesoyl; not fully specified (bridges); printed as bicyclo[Tm-(D-4-Fpa-Fpa-D-Thr-Pip-Nal-Arg-Ala-D-Phe)-Dap-(Phe-Nal-Arg-Arg-Arg-Arg-Dap)]-Lys) [peptide 37 (Table 18)] | – | – | IC50 of Pin4 isomerase activity (Pin4): ~34000 nM |
| Butyryl-RRRR[2Nal]FD[Nle][Abu]D-{AMC} [peptide 6 (Table 10, linear control)] | 74.7 ΔFU/min | – | decrease of activity relative to peptide 3 [2]: 53% |
| cyclo([dT][dN][dV][F2Pmp][dA]RRRR[2Nal]FQ) (SMILES CC(C)[C@H]1NC(=O)[C@@H](CC(N)=O)NC(=O)[C@@H]([C@H](C)O)NC(=O)[C@H](CCC(N)=O)NC(=O)[C@H](Cc2ccccc2)NC(=O)[C@H](Cc2ccc3ccccc3c2)NC(=O)[C@H](CCCNC(=N)N)NC(=O)[C@H](CCCNC(=N)N)NC(=O)[C@H](CCCNC(=N)N)NC(=O)[C@H](CCCNC(=N)N)NC(=O)[C@@H](C)NC(=O)[C@H](Cc2ccc(C(F)(F)P(=O)(O)O)cc2)NC1=O) [Monocyclic Inhibitor 1] | – | ~100 nM | – |
| Ac-RRRRRRRRRD[Nle][Abu]D-{AMC} (SMILES CCCC[C@H](NC(=O)[C@H](CC(=O)O)NC(=O)[C@H](CCCNC(=N)N)NC(=O)[C@H](CCCNC(=N)N)NC(=O)[C@H](CCCNC(=N)N)NC(=O)[C@H](CCCNC(=N)N)NC(=O)[C@H](CCCNC(=N)N)NC(=O)[C@H](CCCNC(=N)N)NC(=O)[C@H](CCCNC(=N)N)NC(=O)[C@H](CCCNC(=N)N)NC(=O)[C@H](CCCNC(=N)N)NC(C)=O)C(=O)N[C@@H](CC)C(=O)N[C@@H](CC(=O)O)C(=O)Nc1ccc2c(C)cc(=O)oc2c1) [peptide 7 (Table 10, R9 conjugate)] | 45.3 ΔFU/min | – | decrease of activity relative to peptide 3 [2]: 72% |
| {FITC}-CRRRRFWQCTRV (also: disulfide reduced by TCEP (free thiols), As assayed in the presence of 2 mM tris(carboxylethyl)phosphine) [peptide 8 (Table 10, CAL-PDZ inhibitor), reduced linear form] | – | – | Kd (CAL-PDZ domain): 489 nM |
| cyclo(S[dV]P[F2Pmp]HRRRR[2Nal]FQ) [Monocyclic Inhibitor 2] | – | ~30 nM | Ki [4]: 54 nM |
| Ac-D[Nle][Abu]D-{AMC} (SMILES CCCC[C@H](NC(=O)[C@H](CC(=O)O)NC(C)=O)C(=O)N[C@@H](CC)C(=O)N[C@@H](CC(=O)O)C(=O)Nc1ccc2c(C)cc(=O)oc2c1) [peptide 3 (Table 10, caspase 3/7 substrate)] | 159 ΔFU/min | – | – |
| cyclo(IP[Phg][F2Pmp][Nle]RRRR[2Nal]FQ) [Monocyclic Inhibitor 3] | – | ~200 nM | – |
